Source: US20150285810A1 (LUDWIG INSTITUTE FOR CANCER RESEARCH, published 2015)
Numbering of substitutions follows the chain as printed. Names may count otherwise.

T1: iASPP (1-240)-GST (human, UniProt Q8WUF5 1-240)
T1 construct: Expressed in bacteria, purified on glutathione beads; also called N-terminal iASPP; not shown: GST tag from pGEX vector (BamHI/EcoRI cloning)
T1 sequence: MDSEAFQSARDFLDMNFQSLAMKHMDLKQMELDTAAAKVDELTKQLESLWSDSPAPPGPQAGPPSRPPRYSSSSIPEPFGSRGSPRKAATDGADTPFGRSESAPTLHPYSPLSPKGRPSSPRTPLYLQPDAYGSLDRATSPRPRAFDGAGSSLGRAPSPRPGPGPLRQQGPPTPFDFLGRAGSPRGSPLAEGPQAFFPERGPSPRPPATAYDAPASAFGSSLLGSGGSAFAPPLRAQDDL

T2: iASPP (249-482)-GST (human, UniProt Q8WUF5 249-482)
T2 construct: not shown: GST tag from pGEX vector
T2 sequence: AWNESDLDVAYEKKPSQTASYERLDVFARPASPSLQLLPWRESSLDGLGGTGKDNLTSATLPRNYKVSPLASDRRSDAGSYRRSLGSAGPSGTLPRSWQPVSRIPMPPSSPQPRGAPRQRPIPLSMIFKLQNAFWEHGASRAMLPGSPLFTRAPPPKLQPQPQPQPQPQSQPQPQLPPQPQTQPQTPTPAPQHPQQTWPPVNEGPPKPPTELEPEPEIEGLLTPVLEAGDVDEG

B1: iASPP(S84D/S113D)-V5 (other, not shown: small tags and cut ends)
chain: MDSEAFQSARDFLDMNFQSLAMKHMDLKQMELDTAAAKVDELTKQLESLWSDSPAPPGPQAGPPSRPPRYSSSSIPEPFGSRGDPRKAATDGADTPFGRSESAPTLHPYSPLDPKGRPSSPRTPLYLQPDAYGSLDRATSPRPRAFDGAGSSLGRAPSPRPGPGPLRQQGPPTPFDFLGRAGSPRGSPLAEGPQAFFPERGPSPRPPATAYDAPASAFGSSLLGSGGSAFAPPLRAQDDLTLRRRPPKAWNESDLDVAYEKKPSQTASYERLDVFARPASPSLQLLPWRESSLDGLGGTGKDNLTSATLPRNYKVSPLASDRRSDAGSYRRSLGSAGPSGTLPRSWQPVSRIPMPPSSPQPRGAPRQRPIPLSMIFKLQNAFWEHGASRAMLPGSPLFTRAPPPKLQPQPQPQPQPQSQPQPQLPPQPQTQPQTPTPAPQHPQQTWPPVNEGPPKPPTELEPEPEIEGLLTPVLEAGDVDEGPVARPLSPTRLQPALPPEAQSVPELEEVARVLAEIPRPLKRRGSMEQAPAVALPPTHKKQYQQIISRLFHRHGGPGPGGPEPELSPITEGSEARAGPPAPAPPAPIPPPAPSQSSPPEQPQSMEMRSVLRKAGSPRKARRARLNPLVLLLDAALTGELEVVQQAVKEMNDPSQPNEEGITALHNAICGANYSIVDFLITAGANVNSPDSHGWTPLHCAASCNDTVICMALVQHGAAIFATTLSDGATAFEKCDPYREGYADCATYLADVEQSMGLMNSGAVYALWDYSAEFGDELSFREGESVTVLRRDGPEETDWWWAALHGQEGYVPRNYFGLFPRVKPQRSKV
B2: iASPP (625-828)-V5, wild type, in vitro translated (other)
chain: LNPLVLLLDAALTGELEVVQQAVKEMNDPSQPNEEGITALHNAICGANYSIVDFLITAGANVNSPDSHGWTPLHCAASCNDTVICMALVQHGAAIFATTLSDGATAFEKCDPYREGYADCATYLADVEQSMGLMNSGAVYALWDYSAEFGDELSFREGESVTVLRRDGPEETDWWWAALHGQEGYVPRNYFGLFPRVKPQRSKV
notes: not shown: V5 tag
B3: iASPP(625-828)/L724A (other)
chain: B2 chain with L100A
notes: In vitro translated; not shown: V5 tag
B4: iASPP(625-828)/N813A (other)
chain: B2 chain with N189A
notes: as for B3
B5: iASPP(625-828)/T722A (other)
chain: B2 chain with T98A
notes: as for B3
B6: iASPP(625-828)/T722A/N813A (other)
chain: B2 chain with T98A, N189A
notes: as for B3
B7: iASPP(625-828)/T722A/Y814A (other)
chain: B2 chain with T98A, Y190A
notes: as for B3
B8: iASPP(625-828)/Y814A (other)
chain: B2 chain with Y190A
notes: as for B3
B9: iASPP (625-828)-His (other)
chain: LNPLVLLLDAALTGELEVVQQAVKEMNDPSQPNEEGITALHNAICGANYSIVDFLITAGANVNSPDSHGWTPLHCAASCNDTVICMALVQHGAAIFATTLSDGATAFEKCDPYREGYADCATYLADVEQSMGLMNSGAVYALWDYSAEFGDELSFREGESVTVLRRDGPEETDWWWAALHGQEGYVPRNYFGLFPRVKPQRSKVHHHHHH
notes: Contains the ankyrin repeats and SH3 domain; FITC-labelled in the nuclear import assay; also called C-terminal iASPP
B10: ASPP2 (905-1128)-His (other)
chain: RTNLRKTGSERIAHGMRVKFNPLALLLDSSLEGEFDLVQRIIYEVDDPSLPNDEGITALHNAVCAGHTEIVKFLVQFGVNVNAADSDGWTPLHCAASCNNVQVCKFLVESGAAVFAMTYSDMQTAADKCEEMEEGYTQCSQFLYGVQEKMGIMNKGVIYALWDYEPQNDDELPMKEGDCMTIIHREDEDEIEWWWARLNDKEGYVPRNLLGLYPRIKPRQRSLAHHHHHH
notes: FITC-labelled in the nuclear import assay; also called C-terminus of ASPP2
B11: iASPP (1-240) S84D/S113D (other)
chain: T1 sequence with S84D, S113D
notes: also called iASPP phosphor-mimic mutant; not shown: GST tag from pGEX vector

Assays:
[1] = biological target: p53, transfected (co-transfected in H1299 cells; transfected in Saos-2 cells) (UniProt P04637 1-393); assay: cell-based or functional assay
iASPP (1-240)-GST [2] = biological target: T1, iASPP (1-240)-GST; assay: in vitro translated iASPP(625-828)-V5 pulled down with iASPP(1-240)-GST glutathione beads
iASPP (1-240)-GST [3] = biological target: T1, iASPP (1-240)-GST; assay: in vitro translated iASPP(625-828)-V5 mutant pulled down with iASPP(1-240)-GST glutathione beads
iASPP (249-482)-GST = biological target: T2, iASPP (249-482)-GST; assay: glutathione bead pull-down of purified proteins, anti-His blot
iASPP (1-240)-GST [4] = biological target: T1, iASPP (1-240)-GST; assay: as above
iASPP (625-828)-His = biological target: B9; assay: as above

p53, transfected (co-transfected in H1299 cells; transfected in Saos-2 cells), sequence (P04637 whole entry): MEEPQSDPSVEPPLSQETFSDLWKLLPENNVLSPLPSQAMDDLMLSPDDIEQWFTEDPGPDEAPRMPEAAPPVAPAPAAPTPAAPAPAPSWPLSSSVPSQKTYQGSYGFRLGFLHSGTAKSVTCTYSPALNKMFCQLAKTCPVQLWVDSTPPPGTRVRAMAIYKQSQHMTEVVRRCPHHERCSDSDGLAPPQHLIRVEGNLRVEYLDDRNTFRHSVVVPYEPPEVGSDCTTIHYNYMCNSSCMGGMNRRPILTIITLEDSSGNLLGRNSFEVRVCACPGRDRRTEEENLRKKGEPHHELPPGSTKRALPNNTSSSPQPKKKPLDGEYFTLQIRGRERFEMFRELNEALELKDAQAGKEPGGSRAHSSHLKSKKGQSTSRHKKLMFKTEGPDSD

Binder | binding result (iASPP (1-240)-GST [3]) | other results
B1 | – | inhibition of p53 mediated transcription (PIG3 reporter, Saos-2 cells), against wild type iASPP [1]: ~3 fold
B2 | – | binding result (iASPP (1-240)-GST [2]): binds
B3 | binds | –
B4 | binds | –
B5 | binds | –
B6 | binds | –
B7 | binds | –
B8 | binds | –
B9 | – | binding result (iASPP (249-482)-GST): no binding (tested: 10 µg/ml each)
B10 | – | binding result (iASPP (1-240)-GST [4]): no binding (tested: 10 µg/ml each)
B11 | – | binding result (iASPP (625-828)-His): no binding (tested: 10 µg/ml each)
